Measured values: patent US20160272683A1 (Novo Nordisk, published 2016)
Numbered stars: 1 amine (or outer) side, 2 acyl side, 3 side chain; on linkers, the order of the positions; unused ones are H or OH. * marks the point of attachment. C20 diacid = O=C(O)CCCCCCCCCCCCCCCCCCC(=O)*; C18 diacid = O=C(O)CCCCCCCCCCCCCCCCC(=O)*; γGlu = O=C(O)[C@H](CCC(=O)[*:2])N[*:1]

T1: human calcitonin receptor (human, UniProt P30988 25-474)
T1 sequence (looked up): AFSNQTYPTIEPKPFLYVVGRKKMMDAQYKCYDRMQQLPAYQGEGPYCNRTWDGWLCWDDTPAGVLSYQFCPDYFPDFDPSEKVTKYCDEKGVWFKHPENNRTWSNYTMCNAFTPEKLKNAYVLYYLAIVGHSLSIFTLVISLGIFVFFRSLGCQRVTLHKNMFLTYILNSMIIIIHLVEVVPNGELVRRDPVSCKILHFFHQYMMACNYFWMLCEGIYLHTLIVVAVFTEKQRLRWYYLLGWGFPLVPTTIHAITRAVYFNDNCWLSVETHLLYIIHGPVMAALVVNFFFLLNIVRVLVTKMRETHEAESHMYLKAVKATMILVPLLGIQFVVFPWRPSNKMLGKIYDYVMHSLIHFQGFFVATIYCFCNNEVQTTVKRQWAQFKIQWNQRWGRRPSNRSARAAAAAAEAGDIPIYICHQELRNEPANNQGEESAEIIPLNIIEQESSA

T2: human amylin 3(a) receptor (human calcitonin receptor co-expressed with RAMP-3) (human, UniProt P30988 25-474; O60896 24-148, limits assumed)
T2 sequence (looked up) 1: T1 sequence (looked up)
T2 sequence (looked up) 2: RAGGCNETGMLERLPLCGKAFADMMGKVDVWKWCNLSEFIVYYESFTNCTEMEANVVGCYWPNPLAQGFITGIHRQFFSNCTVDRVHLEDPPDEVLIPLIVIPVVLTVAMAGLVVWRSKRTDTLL

B1: [N-terminal(C20 diacid-gGlu), des1, 23Y, 30S, 31G, 34K, C-terminal(-)]mimylin (peptide)
peptide: {C20 diacid-γGlu}-ASELSTAALGRLSAELHELATYPRTETGSGSPK-OH
SMILES: CC(C)C[C@H](NC(=O)[C@H](C)NC(=O)[C@H](C)NC(=O)[C@@H](NC(=O)[C@H](CO)NC(=O)[C@H](CC(C)C)NC(=O)[C@H](CCC(=O)O)NC(=O)[C@H](CO)NC(=O)[C@H](C)NC(=O)CC[C@H](NC(=O)CCCCCCCCCCCCCCCCCCC(=O)O)C(=O)O)[C@@H](C)O)C(=O)NCC(=O)N[C@@H](CCCNC(=N)N)C(=O)N[C@@H](CC(C)C)C(=O)N[C@@H](CO)C(=O)N[C@@H](C)C(=O)N[C@@H](CCC(=O)O)C(=O)N[C@@H](CC(C)C)C(=O)N[C@@H](Cc1c[nH]cn1)C(=O)N[C@@H](CCC(=O)O)C(=O)N[C@@H](CC(C)C)C(=O)N[C@@H](C)C(=O)N[C@H](C(=O)N[C@@H](Cc1ccc(O)cc1)C(=O)N1CCC[C@H]1C(=O)N[C@@H](CCCNC(=N)N)C(=O)N[C@H](C(=O)N[C@@H](CCC(=O)O)C(=O)N[C@H](C(=O)NCC(=O)N[C@@H](CO)C(=O)NCC(=O)N[C@@H](CO)C(=O)N1CCC[C@H]1C(=O)N[C@@H](CCCCN)C(=O)O)[C@@H](C)O)[C@@H](C)O)[C@@H](C)O
B2: [N-terminal(C18 diacid-gGlu), des1, 4Q, 16Q, 30S, 31G]mimylin (peptide)
peptide: {C18 diacid-γGlu}-ASQLSTAALGRLSAQLHELATLPRTETGSGSP-NH2
SMILES: CC(C)C[C@H](NC(=O)[C@H](C)NC(=O)[C@H](C)NC(=O)[C@@H](NC(=O)[C@H](CO)NC(=O)[C@H](CC(C)C)NC(=O)[C@H](CCC(N)=O)NC(=O)[C@H](CO)NC(=O)[C@H](C)NC(=O)CC[C@H](NC(=O)CCCCCCCCCCCCCCCCC(=O)O)C(=O)O)[C@@H](C)O)C(=O)NCC(=O)N[C@@H](CCCNC(=N)N)C(=O)N[C@@H](CC(C)C)C(=O)N[C@@H](CO)C(=O)N[C@@H](C)C(=O)N[C@@H](CCC(N)=O)C(=O)N[C@@H](CC(C)C)C(=O)N[C@@H](Cc1c[nH]cn1)C(=O)N[C@@H](CCC(=O)O)C(=O)N[C@@H](CC(C)C)C(=O)N[C@@H](C)C(=O)N[C@H](C(=O)N[C@@H](CC(C)C)C(=O)N1CCC[C@H]1C(=O)N[C@@H](CCCNC(=N)N)C(=O)N[C@H](C(=O)N[C@@H](CCC(=O)O)C(=O)N[C@H](C(=O)NCC(=O)N[C@@H](CO)C(=O)NCC(=O)N[C@@H](CO)C(=O)N1CCC[C@H]1C(N)=O)[C@@H](C)O)[C@@H](C)O)[C@@H](C)O
B3: [N-terminal(C18 diacid), 5I]mimylin (peptide)
peptide: {C18 diacid}-EASEISTAALGRLSAELHELATLPRTETGPESP-NH2
SMILES: CC[C@H](C)[C@H](NC(=O)[C@H](CCC(=O)O)NC(=O)[C@H](CO)NC(=O)[C@H](C)NC(=O)[C@H](CCC(=O)O)NC(=O)CCCCCCCCCCCCCCCCC(=O)O)C(=O)N[C@@H](CO)C(=O)N[C@H](C(=O)N[C@@H](C)C(=O)N[C@@H](C)C(=O)N[C@@H](CC(C)C)C(=O)NCC(=O)N[C@@H](CCCNC(=N)N)C(=O)N[C@@H](CC(C)C)C(=O)N[C@@H](CO)C(=O)N[C@@H](C)C(=O)N[C@@H](CCC(=O)O)C(=O)N[C@@H](CC(C)C)C(=O)N[C@@H](Cc1c[nH]cn1)C(=O)N[C@@H](CCC(=O)O)C(=O)N[C@@H](CC(C)C)C(=O)N[C@@H](C)C(=O)N[C@H](C(=O)N[C@@H](CC(C)C)C(=O)N1CCC[C@H]1C(=O)N[C@@H](CCCNC(=N)N)C(=O)N[C@H](C(=O)N[C@@H](CCC(=O)O)C(=O)N[C@H](C(=O)NCC(=O)N1CCC[C@H]1C(=O)N[C@@H](CCC(=O)O)C(=O)N[C@@H](CO)C(=O)N1CCC[C@H]1C(N)=O)[C@@H](C)O)[C@@H](C)O)[C@@H](C)O)[C@@H](C)O
B4: [N-terminal(C20 diacid-gGlu), des1, 9T, 21S, 23Y, 30S, 31G]mimylin (peptide)
peptide: {C20 diacid-γGlu}-ASELSTATLGRLSAELHELSTYPRTETGSGSP-NH2
SMILES: CC(C)C[C@H](NC(=O)[C@H](CCCNC(=N)N)NC(=O)CNC(=O)[C@H](CC(C)C)NC(=O)[C@@H](NC(=O)[C@H](C)NC(=O)[C@@H](NC(=O)[C@H](CO)NC(=O)[C@H](CC(C)C)NC(=O)[C@H](CCC(=O)O)NC(=O)[C@H](CO)NC(=O)[C@H](C)NC(=O)CC[C@H](NC(=O)CCCCCCCCCCCCCCCCCCC(=O)O)C(=O)O)[C@@H](C)O)[C@@H](C)O)C(=O)N[C@@H](CO)C(=O)N[C@@H](C)C(=O)N[C@@H](CCC(=O)O)C(=O)N[C@@H](CC(C)C)C(=O)N[C@@H](Cc1c[nH]cn1)C(=O)N[C@@H](CCC(=O)O)C(=O)N[C@@H](CC(C)C)C(=O)N[C@@H](CO)C(=O)N[C@H](C(=O)N[C@@H](Cc1ccc(O)cc1)C(=O)N1CCC[C@H]1C(=O)N[C@@H](CCCNC(=N)N)C(=O)N[C@H](C(=O)N[C@@H](CCC(=O)O)C(=O)N[C@H](C(=O)NCC(=O)N[C@@H](CO)C(=O)NCC(=O)N[C@@H](CO)C(=O)N1CCC[C@H]1C(N)=O)[C@@H](C)O)[C@@H](C)O)[C@@H](C)O
B5: [N-terminal(C18 diacid-gGlu), des1, 6T, 9V, 30S, 31G]mimylin (peptide)
peptide: {C18 diacid-γGlu}-ASELTTAVLGRLSAELHELATLPRTETGSGSP-NH2
SMILES: CC(C)C[C@H](NC(=O)[C@H](CCC(=O)O)NC(=O)[C@H](Cc1c[nH]cn1)NC(=O)[C@H](CC(C)C)NC(=O)[C@H](CCC(=O)O)NC(=O)[C@H](C)NC(=O)[C@H](CO)NC(=O)[C@H](CC(C)C)NC(=O)[C@H](CCCNC(=N)N)NC(=O)CNC(=O)[C@H](CC(C)C)NC(=O)[C@@H](NC(=O)[C@H](C)NC(=O)[C@@H](NC(=O)[C@@H](NC(=O)[C@H](CC(C)C)NC(=O)[C@H](CCC(=O)O)NC(=O)[C@H](CO)NC(=O)[C@H](C)NC(=O)CC[C@H](NC(=O)CCCCCCCCCCCCCCCCC(=O)O)C(=O)O)[C@@H](C)O)[C@@H](C)O)C(C)C)C(=O)N[C@@H](C)C(=O)N[C@H](C(=O)N[C@@H](CC(C)C)C(=O)N1CCC[C@H]1C(=O)N[C@@H](CCCNC(=N)N)C(=O)N[C@H](C(=O)N[C@@H](CCC(=O)O)C(=O)N[C@H](C(=O)NCC(=O)N[C@@H](CO)C(=O)NCC(=O)N[C@@H](CO)C(=O)N1CCC[C@H]1C(N)=O)[C@@H](C)O)[C@@H](C)O)[C@@H](C)O
B6: [N-terminal(C20 diacid-gGlu), des1, 9S, 23Y, 30S, 31G, 33Y]mimylin (peptide)
peptide: {C20 diacid-γGlu}-ASELSTASLGRLSAELHELATYPRTETGSGSY-NH2
SMILES: CC(C)C[C@H](NC(=O)[C@H](CO)NC(=O)[C@H](C)NC(=O)[C@@H](NC(=O)[C@H](CO)NC(=O)[C@H](CC(C)C)NC(=O)[C@H](CCC(=O)O)NC(=O)[C@H](CO)NC(=O)[C@H](C)NC(=O)CC[C@H](NC(=O)CCCCCCCCCCCCCCCCCCC(=O)O)C(=O)O)[C@@H](C)O)C(=O)NCC(=O)N[C@@H](CCCNC(=N)N)C(=O)N[C@@H](CC(C)C)C(=O)N[C@@H](CO)C(=O)N[C@@H](C)C(=O)N[C@@H](CCC(=O)O)C(=O)N[C@@H](CC(C)C)C(=O)N[C@@H](Cc1c[nH]cn1)C(=O)N[C@@H](CCC(=O)O)C(=O)N[C@@H](CC(C)C)C(=O)N[C@@H](C)C(=O)N[C@H](C(=O)N[C@@H](Cc1ccc(O)cc1)C(=O)N1CCC[C@H]1C(=O)N[C@@H](CCCNC(=N)N)C(=O)N[C@H](C(=O)N[C@@H](CCC(=O)O)C(=O)N[C@H](C(=O)NCC(=O)N[C@@H](CO)C(=O)NCC(=O)N[C@@H](CO)C(=O)N[C@@H](Cc1ccc(O)cc1)C(N)=O)[C@@H](C)O)[C@@H](C)O)[C@@H](C)O
B7: [N-terminal(C20 diacid-gGlu), des1, 23Y, 30S, 31G, 34G, C-terminal(-)]mimylin (peptide)
peptide: {C20 diacid-γGlu}-ASELSTAALGRLSAELHELATYPRTETGSGSPG-OH
SMILES: CC(C)C[C@H](NC(=O)[C@H](C)NC(=O)[C@H](C)NC(=O)[C@@H](NC(=O)[C@H](CO)NC(=O)[C@H](CC(C)C)NC(=O)[C@H](CCC(=O)O)NC(=O)[C@H](CO)NC(=O)[C@H](C)NC(=O)CC[C@H](NC(=O)CCCCCCCCCCCCCCCCCCC(=O)O)C(=O)O)[C@@H](C)O)C(=O)NCC(=O)N[C@@H](CCCNC(=N)N)C(=O)N[C@@H](CC(C)C)C(=O)N[C@@H](CO)C(=O)N[C@@H](C)C(=O)N[C@@H](CCC(=O)O)C(=O)N[C@@H](CC(C)C)C(=O)N[C@@H](Cc1c[nH]cn1)C(=O)N[C@@H](CCC(=O)O)C(=O)N[C@@H](CC(C)C)C(=O)N[C@@H](C)C(=O)N[C@H](C(=O)N[C@@H](Cc1ccc(O)cc1)C(=O)N1CCC[C@H]1C(=O)N[C@@H](CCCNC(=N)N)C(=O)N[C@H](C(=O)N[C@@H](CCC(=O)O)C(=O)N[C@H](C(=O)NCC(=O)N[C@@H](CO)C(=O)NCC(=O)N[C@@H](CO)C(=O)N1CCC[C@H]1C(=O)NCC(=O)O)[C@@H](C)O)[C@@H](C)O)[C@@H](C)O

The binders below were run against T1, human calcitonin receptor (assay: cell-based or functional assay).

hCTR funct. EC50 (pM)	Binder
88	B1
13	{C18 diacid-γGlu}-ASEVSTAVLGRLSAELHELATLPRTETGSGSP-NH2 [[N-terminal(C18 diacid-gGlu), des1, 5V, 9V, 30S, 31G]mimylin]
13	B2
7	B3
127	{C20 diacid-γGlu}-ASELSTAALGRLSAELHELATYPRTETGSGSY-OH [[N-terminal(C20 diacid-gGlu), des1, 23Y, 30S, 31G, 33Y, C-terminal(-)]mimylin]
23	B4
28	B5
41	B6
64	B7

Each binder was assayed against T2, human amylin 3(a) receptor (human …) (assay: cell-based or functional assay).

hAmylin-R funct. EC50 (pM)	Binder
239	B1
32	{C18 diacid-γGlu}-ASEVSTAVLGRLSAELHELATLPRTETGSGSP-NH2 [[N-terminal(C18 diacid-gGlu), des1, 5V, 9V, 30S, 31G]mimylin]
9	B2
7	B3
461	{C20 diacid-γGlu}-ASELSTAALGRLSAELHELATYPRTETGSGSY-OH [[N-terminal(C20 diacid-gGlu), des1, 23Y, 30S, 31G, 33Y, C-terminal(-)]mimylin]
22	B4
33	B5
37	B6
187	B7
